The record followed here is patent US20250084174A1 (AstraZeneca / MedImmune, published 2025).

Like-named read-outs stand apart in the source and are kept apart here.

In experiment [1] the target is T1, CCR5 (UniProt P51681 1-352, limits assumed).
T1 construct: whole, on cells; The cell line is not described
Briefly: binding to cells expressing CCR5, fluorescence counts (FL1 Counts) against Log M.

Experiment [2] has as its target T2, CCR8 (UniProt P51685 1-355, limits assumed).
T2 construct: whole, on cells; The cell line is not described
The experiment in a line: binding to cells expressing CCR8, fluorescence counts (FL1 Counts) against Log M.

For another experiment, the target named is T3, CXCR1 (UniProt P25024 1-350, limits assumed).
T3 construct: whole, on cells; The cell line is not described
T3 sequence (looked up): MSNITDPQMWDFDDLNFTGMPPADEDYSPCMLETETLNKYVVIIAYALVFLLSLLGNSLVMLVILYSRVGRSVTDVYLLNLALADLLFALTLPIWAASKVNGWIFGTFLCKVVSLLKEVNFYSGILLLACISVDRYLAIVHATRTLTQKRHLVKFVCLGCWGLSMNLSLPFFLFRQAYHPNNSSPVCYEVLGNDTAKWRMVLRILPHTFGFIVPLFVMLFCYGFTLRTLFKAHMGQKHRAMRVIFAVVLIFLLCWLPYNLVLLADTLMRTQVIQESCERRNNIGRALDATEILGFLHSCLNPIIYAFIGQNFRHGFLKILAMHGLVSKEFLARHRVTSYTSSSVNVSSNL
The experiment in a line: binding to cells expressing CXCR1, fluorescence counts (FL1 Counts) against Log M.

The target in a further experiment is T4, CXCR2 (UniProt P25025 1-360, limits assumed).
T4 construct: whole, on cells; The cell line is not described
T4 sequence (looked up): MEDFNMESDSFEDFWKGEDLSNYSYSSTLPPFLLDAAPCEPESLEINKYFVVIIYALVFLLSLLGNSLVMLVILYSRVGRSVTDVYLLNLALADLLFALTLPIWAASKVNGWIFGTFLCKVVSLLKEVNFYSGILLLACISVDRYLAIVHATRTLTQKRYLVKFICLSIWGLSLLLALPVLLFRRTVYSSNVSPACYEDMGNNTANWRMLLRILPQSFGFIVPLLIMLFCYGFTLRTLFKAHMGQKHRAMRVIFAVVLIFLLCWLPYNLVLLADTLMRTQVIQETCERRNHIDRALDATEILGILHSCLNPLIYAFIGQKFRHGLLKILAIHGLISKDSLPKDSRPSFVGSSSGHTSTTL
Briefly: binding to cells expressing CXCR2, fluorescence counts (FL1 Counts) against Log M.

Experiment [3] concerns the target T5, cynomolgus CCR9 (cynomolgus, UniProt Q0H741 1-369).
T5 construct: Overexpressed on HEK cells, or endogenous on cynomolgus PBMC; also called cynomolgus CCR9A; Cyno HEK
T5 sequence: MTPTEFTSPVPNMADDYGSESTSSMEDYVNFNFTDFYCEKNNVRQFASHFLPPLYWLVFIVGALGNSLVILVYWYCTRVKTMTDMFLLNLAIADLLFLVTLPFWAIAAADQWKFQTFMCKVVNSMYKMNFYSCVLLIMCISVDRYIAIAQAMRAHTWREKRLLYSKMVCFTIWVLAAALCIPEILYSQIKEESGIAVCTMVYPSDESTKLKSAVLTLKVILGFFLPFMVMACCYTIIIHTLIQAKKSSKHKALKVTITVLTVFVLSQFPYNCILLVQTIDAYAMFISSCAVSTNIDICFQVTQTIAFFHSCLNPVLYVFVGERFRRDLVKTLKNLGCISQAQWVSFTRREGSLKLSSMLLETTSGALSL
Briefly: binding to HEK cells expressing cynomolgus CCR9, fluorescence counts (FL1 Counts) against Log M.

Experiment [4] has as its target T6, rat CCR9 (rat, UniProt Q8CH33 1-369).
T6 construct: Overexpressed on HEK cells; also called Rat HEK
T6 sequence: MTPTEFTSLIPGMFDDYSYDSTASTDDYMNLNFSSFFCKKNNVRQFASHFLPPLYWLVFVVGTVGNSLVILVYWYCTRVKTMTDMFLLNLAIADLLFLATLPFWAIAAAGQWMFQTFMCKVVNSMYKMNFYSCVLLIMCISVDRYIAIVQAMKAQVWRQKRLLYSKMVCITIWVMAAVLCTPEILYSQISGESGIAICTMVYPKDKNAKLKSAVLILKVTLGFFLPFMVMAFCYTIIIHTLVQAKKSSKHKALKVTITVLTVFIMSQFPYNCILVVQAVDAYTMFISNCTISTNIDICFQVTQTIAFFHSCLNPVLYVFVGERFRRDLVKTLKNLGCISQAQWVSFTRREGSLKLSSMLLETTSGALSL
Briefly: binding to HEK cells overexpressing rat CCR9, MFI against [Ab] ug/ml. On the procedure:
(§1) The antibody AB1020243 (hybridoma mIgG) was also tested for binding to different forms of CCR9. Briefly, test antibody was diluted to a concentration of 60 μg/mL in assay buffer containing Hanks Balanced Salt solution (Sigma HB264) plus 0.1% Bovine Serum Albumin (Sigma A9576). Antibody was titrated in duplicate using single fold titrations over 24 points on a 384 black clear bottomed, non-binding microplate (Corning® NBS™ 3655) so that the final volume of test antibody was 10 μL per well. […]
(§2) Transfected HEK CCR9 overexpressing cell lines or un-transfected parental control cells were suspended in assay buffer at a concentration of 1×10⁶ cells per ml, and 10 μL of cells were dispensed to the assay plate containing test antibody and secondary antibody using a Multidrop dispenser (Thermo Scientific). Assay plates were incubated overnight at 4° C. and were read on a mirrorball® (laser scanning fluorescence cytometer; TTP-Labtech) using excitation at 488 nm and emission using the FL4channel (667-685 nm). Data was plotted in GraphPad Prism version 8.0.0 for Windows (GraphPad Software, San Diego, California USA) and expressed as Log (mg/mL antibody) v's Fluorescence (FL4) counts.

Experiment [5] deals with T7, mouse CCR9 (mouse, UniProt Q9WUT7 1-369).
T7 construct: whole, on cells; Overexpressed on HEK cells; also called mCCR9; Mouse HEK
T7 sequence (looked up): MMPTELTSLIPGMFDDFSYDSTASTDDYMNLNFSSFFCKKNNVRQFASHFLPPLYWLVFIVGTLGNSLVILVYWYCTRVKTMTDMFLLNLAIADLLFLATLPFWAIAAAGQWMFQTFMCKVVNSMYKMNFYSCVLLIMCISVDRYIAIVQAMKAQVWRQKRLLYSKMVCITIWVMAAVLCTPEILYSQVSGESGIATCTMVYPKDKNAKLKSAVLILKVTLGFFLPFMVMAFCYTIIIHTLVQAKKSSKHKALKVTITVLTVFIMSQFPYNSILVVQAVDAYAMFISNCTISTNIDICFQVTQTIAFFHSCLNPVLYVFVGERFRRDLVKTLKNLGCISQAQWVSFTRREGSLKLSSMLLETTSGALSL
The experiment in a line: binding to HEK cells overexpressing mouse CCR9, MFI against [Ab] ug/ml. On the procedure: as §1, §2

In experiment [6] the target is T8, human CCR9A (human, UniProt P51686 1-369).
T8 construct: Overexpressed on HEK cells; also called Hu A HEK; hCCR9 isoform A
T8 sequence: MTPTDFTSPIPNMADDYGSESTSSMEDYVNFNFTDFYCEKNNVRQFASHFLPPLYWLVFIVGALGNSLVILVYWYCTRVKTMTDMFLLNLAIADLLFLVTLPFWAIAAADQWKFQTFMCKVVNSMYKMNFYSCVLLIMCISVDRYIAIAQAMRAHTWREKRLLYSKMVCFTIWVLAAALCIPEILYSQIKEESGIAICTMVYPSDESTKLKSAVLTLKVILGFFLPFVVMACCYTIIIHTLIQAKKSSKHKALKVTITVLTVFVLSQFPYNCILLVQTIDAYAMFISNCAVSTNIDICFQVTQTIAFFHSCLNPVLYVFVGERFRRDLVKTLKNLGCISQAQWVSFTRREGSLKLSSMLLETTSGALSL
The experiment in a line: binding to HEK cells overexpressing human CCR9A, MFI against [Ab] ug/ml; Parental HEK stays at about 0. On the procedure:
as §1, §2

The target in experiment [7] is T9, human CCR9B (human, UniProt P51686 13-369).
T9 construct: Overexpressed on HEK cells; also called Hu B HEK; hCCR9 isoform B
T9 sequence: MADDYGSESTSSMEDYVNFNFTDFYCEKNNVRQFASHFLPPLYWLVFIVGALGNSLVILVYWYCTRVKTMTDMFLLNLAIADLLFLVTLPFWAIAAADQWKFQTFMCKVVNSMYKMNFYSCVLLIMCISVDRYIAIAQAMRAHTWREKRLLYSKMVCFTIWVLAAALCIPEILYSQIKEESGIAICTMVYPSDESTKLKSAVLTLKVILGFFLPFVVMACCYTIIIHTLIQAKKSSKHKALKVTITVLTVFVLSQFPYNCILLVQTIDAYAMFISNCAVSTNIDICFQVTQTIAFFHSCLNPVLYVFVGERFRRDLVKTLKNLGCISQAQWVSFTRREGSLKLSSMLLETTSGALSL
The experiment in a line: binding to HEK cells overexpressing human CCR9B, MFI against [Ab] ug/ml; Parental HEK stays at about 0. On the procedure: as §1, §2

Experiment [8] deals with T5, cynomolgus CCR9. The experiment in a line: cell-based or functional assay.
In experiment [9] the target is T7, mouse CCR9. The experiment in a line: cell binding by the methods of Example 4.
Experiment [10] addresses T6, rat CCR9. Briefly: cell binding by the methods of Example 4.
Experiment [11] concerns the target T1, CCR5. Briefly: binding to cells expressing CCR5, fluorescence counts (FL1 Counts) against Log M. This is another data set of the same source.
Experiment [12] addresses T2, CCR8. Briefly: binding to cells expressing CCR8, fluorescence counts (FL1 Counts) against Log M. This is another data set of the same source.
Experiment [13] concerns the target T8, human CCR9A. The experiment in a line: binding to cells expressing human CCR9A, fluorescence counts (FL1 Counts) against Log M.
Experiment [14] has as its target T9, human CCR9B. Briefly: binding to cells expressing human CCR9B, fluorescence counts (FL1 Counts) against Log M.

T2 sequence (P51685 whole entry): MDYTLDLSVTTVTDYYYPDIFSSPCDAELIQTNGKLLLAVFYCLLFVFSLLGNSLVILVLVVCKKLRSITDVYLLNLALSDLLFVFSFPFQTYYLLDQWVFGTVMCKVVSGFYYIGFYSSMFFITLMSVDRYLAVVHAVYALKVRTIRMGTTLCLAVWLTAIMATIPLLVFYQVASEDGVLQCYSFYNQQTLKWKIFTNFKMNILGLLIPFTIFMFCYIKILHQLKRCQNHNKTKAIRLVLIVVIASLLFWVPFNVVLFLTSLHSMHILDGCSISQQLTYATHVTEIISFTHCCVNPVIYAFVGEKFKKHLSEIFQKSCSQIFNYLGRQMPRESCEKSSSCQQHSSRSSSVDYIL
T1 sequence (P51681 whole entry): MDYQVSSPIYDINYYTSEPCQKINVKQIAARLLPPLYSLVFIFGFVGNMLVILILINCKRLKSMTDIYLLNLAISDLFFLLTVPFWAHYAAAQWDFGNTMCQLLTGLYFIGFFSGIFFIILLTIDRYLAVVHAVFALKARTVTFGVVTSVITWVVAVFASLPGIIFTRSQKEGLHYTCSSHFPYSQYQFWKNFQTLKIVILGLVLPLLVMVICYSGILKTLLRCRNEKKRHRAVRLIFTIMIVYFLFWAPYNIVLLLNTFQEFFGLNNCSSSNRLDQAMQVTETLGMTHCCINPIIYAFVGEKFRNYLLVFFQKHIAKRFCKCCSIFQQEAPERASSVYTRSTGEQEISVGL

B1: AB1020243 afuc (chimeric parent antibody, afucosylated) (antibody, V domains shown)
VH: EVQLQQSGTVLARPGASVKMSCKASGYTFTSYWMHWVKQRPGQGLEWIGVIYPGNSDTRYNQKFKGKAKLTAVTSATTAYMELSSLTNEDSAVYYCTRDYYSNYVYYYAMDYWGQGTSVTVSS
VL: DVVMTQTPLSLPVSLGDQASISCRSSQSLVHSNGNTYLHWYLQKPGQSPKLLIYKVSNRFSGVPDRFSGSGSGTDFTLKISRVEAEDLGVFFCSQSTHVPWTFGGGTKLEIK
modifications: afucosylated form; in the LigandTracer assay DyLight 650 Maleimide on an engineered cysteine residue in the CH2 region
notes: Mouse variable domains; Called chimeric, with human IgG1 format stated for the LigandTracer assay; also called chimeric AB1020243; parent AB1020243
Usually EC50 (read off the curve) stands for the midpoint of the concentration-response curve. A low value points to an effect from little substance. Consider B1, for which the binding result in the experiment with CCR5 [1] is “no binding (tested: Log M about -6.5 (about 3e-7 M))”; with CCR8 [2] it was “no binding (tested: Log M about -6.5 (about 3e-7 M))”; in the experiment with CXCR1, “no binding (tested: Log M about -6.9 (about 1e-7 M))”; in the experiment with CXCR2, “no binding (tested: Log M about -6.9 (about 1e-7 M))”. The “EC50 (read off the curve)” value with cynomolgus CCR9 [3] was approximately 0.6 nM.

B2: AB1020243 (hybridoma mIgG) (antibody, V domains shown)
VH: EVQLQQSGTVLARPGASVKMSCKASGYTFTSYWMHWVKQRPGQGLEWIGVIYPGNSDTRYNQKFKGKAKLTAVTSATTAYMELSSLTNEDSAVYYCTRDYYSNYVYYYAMDYWGQGTSVTVSS
VL: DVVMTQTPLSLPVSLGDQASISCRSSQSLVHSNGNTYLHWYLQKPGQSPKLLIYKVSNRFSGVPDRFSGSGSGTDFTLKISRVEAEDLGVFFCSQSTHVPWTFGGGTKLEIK
notes: Mouse IgG from the hybridoma; also called clone ZY10O1-A02
Turning to B2, the binding result in the experiment with rat CCR9 [4] is “no binding (tested: 10 ug/ml)”; with mouse CCR9 [5], “no binding (tested: 10 ug/ml)”; with human CCR9A [6], “binds”; with human CCR9B [7], “binds”.

B3: AB243LO0326 (antibody, V domains shown)
VH: QVQLVQSGAEVKKPGASVKVSCKASGYTFTSYWMHWVRQAPGQGLEWIGVIYPGNSDTRYNQKFKGRVTITRDTSASTAYMELSSLRSEDTAVYYCTRDYYSNYVYYYAMDYWGQGTTVTVSS
VL: DIVMTQTPLSLPVTPGEPASISCRSSQSLVHPNRNTYLHWYLQKPGQSPQLLIYKVSNRFSGVPDRFSGSGSGTDFTLKISRVEAEDVGVYYCSQSTHVPWTFGQGTKLEIK
modifications: afucosylated form; in the LigandTracer assay DyLight 650 Maleimide on an engineered cysteine residue in the CH2 region
notes: Full chains are not tied to the tested lot
Consider B3, for which the “EC50, killing of cynomolgus CD4+CCR9+ PBMC” value in the experiment with cynomolgus CCR9 [8] came out at 0.03 nM. Moreover, the binding result in the experiment with mouse CCR9 [9] is reported as “no binding”; with rat CCR9 [10] it was “no binding”; with CCR5 [11], “no binding (tested: Log M about -6.9 (about 1e-7 M))”; in the experiment with CCR8 [12], “no binding (tested: Log M about -6.9 (about 1e-7 M))”; in the experiment with CXCR1, “no binding (tested: Log M about -6.9 (about 1e-7 M))”; in the experiment with CXCR2 it was “no binding (tested: Log M about -6.9 (about 1e-7 M))”. Also, the binding result with human CCR9A [13] and with human CCR9B [14] was “binds” each time.

B4: AB243LO0331 (antibody, IgG1, V domains shown)
VH: QVQLVQSGAEVKKPGASVKVSCKASGYTFTSYWMHWVRQAPGQGLEWIGVIYPGNSDTRYNQKFKGRVTITRDTSASTAYMELSSLRSEDTAVYYCTRDYYSNYVYYYAMDYWGQGTTVTVSS
VL: DIVMTQTPLSLPVTPGEPASISCRSSQSLVHSNTNTYLHWYLQKPGQSPQLLIYKVSNRFSGVPDRFSGSGSGTDFTLKISRVEAEDVGVYYCSQSTHVPWTFGQGTKLEIK
modifications: afucosylated form
For B4, the binding result in the experiment with mouse CCR9 [9] and with rat CCR9 [10] was “no binding” throughout.
